According to patent US20250269025A1 (AVENCELL THERAPEUTICS, published 2025):
No end group written: not given here.

Columns and labels:
human CD123-Fc = target: T1, human CD123-Fc (human, UniProt P26951 19-305, limits assumed); experiment: SPR, Biacore X100, human CD123-Fc on CM5 chip, 1:1 model; KD CD123 (first number of the cell)
T1 construct: Coupled to a CM5 sensor chip; also called soluble recombinant CD123; not shown: Fc part
T1 sequence (looked up): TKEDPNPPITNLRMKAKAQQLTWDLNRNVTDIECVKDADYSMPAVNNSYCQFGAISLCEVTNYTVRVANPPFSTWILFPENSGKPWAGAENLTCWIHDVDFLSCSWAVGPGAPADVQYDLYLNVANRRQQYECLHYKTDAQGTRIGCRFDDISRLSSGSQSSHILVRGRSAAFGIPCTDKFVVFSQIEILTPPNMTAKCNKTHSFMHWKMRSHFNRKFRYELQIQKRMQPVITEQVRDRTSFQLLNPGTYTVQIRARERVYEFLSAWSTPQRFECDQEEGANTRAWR
Description: Binding of different variants of the targeting module according to the invention was analyzed by SPR measurements using human CD123-Fc coupled to a CM5 sensor chip on a Biacore X100 device (FIG. 2). Targeting modules were purified monomer except for the targeting module according to SEQ ID No. 8. […] For data fitting and KD calculation a 1:1 binding model was applied.

[1] = target: T2, CD123 on CD123 positive AML cells (Oci-AML3, Molm-13, MV4-11, primary AML cells) (human, UniProt P26951 19-378); experiment: cellular binding assay per table caption, Oci-AML3 cells
T2 construct: whole, on cells; Endogenous CD123 on human AML cell lines; also called target antigen CD123

[2] = target: T3, La epitope 5B9 (SEQ ID No. 28) fused to human Fc domain (human, also: fused to human Fc domain, order, isotype, linker not given here); experiment: SPR, Biacore X100, La epitope 5B9-human Fc on CM5 chip; KD 5B9 (second number of the cell)
T3 construct: Coupled to a CM5 sensor chip; not shown: human Fc domain
T3 chain: KPLPEVTDEY
Description: Furthermore, binding of different variants of the targeting module according to the invention was analyzed using the La epitope 5B9 (SEQ ID No. 28) fused to human Fc domain which was coupled to a CM5 sensor chip on a Biacore X100 device (FIG. 3). The targeting modules were purified monomers. The targeting modules were concentrated between 2.47 to 200 nM and measured in technical duplicates. For data fitting and KD calculation a two-state-reaction binding model was applied.

[3] = target: T2, CD123 on CD123 positive AML cells …; experiment: cellular binding assay per table caption, Molm-13 cells

Kd (human CD123-Fc): 5.2 nM
EC50 [1]: 0.026 nM
Kd [2]: 3.4 nM
EC50 [3]: 0.0071 nM
B1: targeting module according to SEQ ID No. 4 (bispecific antibody)
chain: GQVQLVQSGAEVKKPGASVKMSCKASGYTFTDYYMKWVKQAPGQGLEWIGDIIPSNGATFYNQKFQGRATLTVDTSTSTAYMELSSLRSEDTAVYYCTRSHLLRASWFAYWGQGTLVTVSSASGGGGSGGGGSGGGGSDIVMTQSPDSLAVSLGERATINCKSSQSLLNSGNQKNYLTWYLQKPGQPPKLLIYWASTRESGVPDRFSGSGSGTDFTLTISSVQAEDVAVYYCQNDYSYPYTFGGGTKLEIKAAARGDIVMTQSPDSLAVSLGERVTMNCKSSQSLLNSRTPKNYLAWYQQKPGQSPKLLIYWASTRKSGVPDRFSGSGSGTDFTLTISSVQAEDVAVYYCKQSYNLLTFGGGTKLEIKGGGGSGGGGSGASAAGGGGSGGGGSQVQLVESGAEVVKPGASVKLSCKASGYAFTHYYIYWIKQAPGQGLEWIGGVNPSNGGTHFNEKFKSRATLTVDTSISTAYMELSRLRSDDTAVYYCTRSEYDYGLGFAYWGQGTLVTVSSGGGGSHHHHHHHH
notes: also called huCD123_2 + rs5B9-VLVH
